Laboratory results from patent US20220315908A1, “NOVEL GARDNERELLA ENDOLYSINS AND USES THEREOF” (priority 2019, published 2022).

Columns and labels:
[1] = tested on: four Gardnerella strains (Gv_9, Gv_11, Gv_17, Gv_23); assay: CFU reduction averaged across the four Gardnerella strains, with activity ranks; format: cell-based; settings: for average of the log 10 activities of each construct across the four Gardnerella strains: pH 5.0, 5 hours, anaerobic; for activity rank of all endolysins: rank 1-91, based on the data of Table 5B
Experimental: (§1) The lysis activity on the four main species of Gardnerella of 91 constructs (natural and domain-swapped endolysins) was quantitatively assessed using the method described in Reference Example 2. Briefly, 90 ul 5e7 CFU/ml of the indicated strain were incubated for 5 hours at pH 5.0 under anaerobic conditions with 10 ul endolysin (concentration adjusted to 0.2 mg/ml where possible, see Table 4).
(§2) The results are shown in FIGS. 8A to 8D together with Tables 5A to 5C. In FIGS. 8A to 8D, the logarithmic Y axis depicts the count of surviving cells. The dotted line indicates the limit of detection (LOD) given by plating of 2 ul of the reaction mix (500 CFU/ml). Each combination of the natural 10 H-domains and the natural 9 B-regions was assessed, including the natural endolysins (H1B1, H2B2, H3B3, etc.), plus H6B6. […] The activity of each construct was measured on each of the 4 main Gardnerella species G. vaginalis sensu stricto, G. leopoldii, G. piotii, and G. swidsinkii. All conditions have been measured in triplicate. The survival after 5 hours incubation at pH 5.0 under anaerobic conditions with endolysins vs. buffer was measured by quantitative plating. The values indicate the log 10 of the ratio of surviving CFU for treated vs. untreated cells. The average of the triplicate measurements is used. In tables 5A and 5B, high negative log 10 values, e.g. −6.7, −5.5, −4.8 etc. are associated with high enzymatic activity, while log 10 values closer to zero or even positive log 10 values are associated with low or no enzymatic activity. […] Inversely, a reduction value of −3.7 means a 10^3.7-fold (=5012-fold) reduction of viable CFU in treated sample vs. untreated control.
(§3) Gardnerella cells were recovered from cryo stock by plating on Chocolate Agar plates (Beckton Dickinson) and incubating for 48 h at 37° C. under anaerobic conditions. For Lactobacilli, BD Schaedler/5% sheep blood agar plates were used instead. Colonies were scraped from the plate, resuspended in Hardy Broth or NYC-III-HS-5.0 at the pH as indicated, and the suspension adjusted to OD (610 or 620 nm as indicated) 0.1. It has to be noted that two Tecan Microplate readers, having respectively a 610 nm or 620 nm filter, have been used interchangeably in the experiments. Although it doesn't make any difference for the experiments, the exact wavelength used is specified in each example. If not stated otherwise, 90 μl cell suspension was mixed with 10 μl endolysin solution, for the different species/endolysin combinations, in 384-well plates. OD(610-620 nm as indicated) was measured at the beginning of the reaction and at the end, either as two measurement points or as a continuous kinetic in a Tecan F200 Microplate reader. The reactions were incubated for 5 hours (or otherwise the time indicated) at 37° C. under anaerobic, micro-aerophilic or aerobic conditions as indicated. Anaerobic conditions intend that oxygen was fully depleted from the container in which the bacteria are incubated (Sigma-Aldrich anaerobic jar or sealable lunch box) with an anaerobic sachet, and the lack of oxygen was confirmed with an anaerobic indicator inside the container. Where micro-aerophilic conditions are indicated, the candle-in-a-jar method was used (tea candle lit in an appropriate sealable container, which reduces oxygen levels until the flame dies out).

[2] = tested on: G. piotii strain Gv_17; assay: Quantitative reduction in viable CFU assay in bacterial suspension; format: cell-based, Gardnerella piotii; settings: 5 hours, pH 5.0, anaerobic, 10 ul endolysin (0.2 mg/ml where possible) + 90 ul 5e7 CFU/ml, average of triplicate
Experimental: as §1, §2
as §3, with “out). Then each well was diluted in 5 steps (10^−1 to 10^−5) using 96-U-well bottom plates, and 2 μl of each dilution of each reaction mix are plated on BD Chocolate agar plates or BD Schaedler/5% sheep blood agar plates for Gardnerella and Lactobacilli, respectively, for detecting and quantifying surviving CFU. Detection plates were incubated at 37° C. for 48 hours under anaerobic conditions.” for “out).”

[3] = tested on: G. swidsinskii strain Gv_23; assay: as above; format: cell-based, Gardnerella swidsinskii; settings: 5 hours, pH 5.0, anaerobic, 10 ul endolysin (0.2 mg/ml where possible) + 90 ul 5e7 CFU/ml, average of triplicate
Experimental: as §1, §2
as §3, with “out). Then each well was diluted in 5 steps (10^−1 to 10^−5) using 96-U-well bottom plates, and 2 μl of each dilution of each reaction mix are plated on BD Chocolate agar plates or BD Schaedler/5% sheep blood agar plates for Gardnerella and Lactobacilli, respectively, for detecting and quantifying surviving CFU. Detection plates were incubated at 37° C. for 48 hours under anaerobic conditions.” for “out).”

Molecule	average of the log 10 activities of each construct across the four Gardnerella strains [1]	activity rank of all endolysins [1]	log 10 of the ratio of surviving CFU for treated vs. untreated cells [2]	log 10 of the ratio of surviving CFU for treated vs. untreated cells [3]
H11B11: natural Gardnerella prophage endolysin from strain JCP8017A (protein, EL11_strain_JCP8017A, natural Gardnerella prophage endolysin from strain JCP8017A) MSKRGIDVSVWQGDIDFNAVKASGVEFVIIRAGYGIGHKDKWFEQNYRKAKTTGLDVGAYWYSYASSAGEAAEEAQSCVNILSGKSFEYPVYFDLEEKSQLNRGRDFCDSLITSFCNKLETYGYYAGFYTSLSVANNLVSSHVRDRYALWIAQWNTHCDYQGSYGLWQYSSSGSVDGIAGRVDMDYTYVDYPSVIKKAGLNGYKNGGSYTAPQTSSIDEVAREVINGDWGNGNERKNRLTSAGYDYTSVQNKVNELLGVKAYRKSVDELAREVIRGTWGNGSTRKQRLTQAGYDYDAVQKRVNELL	−1.5 log 10	57	−1.0 log 10	−3.5 log 10
H12B12: natural Gardnerella prophage endolysin from strain 3549624 (protein, EL12_strain_3549624_non-prophage) MSKKGIDVSVWQGDIDFNAVKASGVEFVIIRAGYGIGHKDKWFEENYRKAKTAGLDVGSYWYSYASSAGEVALEAQSCVNILSGKSFEYPVYFDLEEKSQLNRGRDFCDSLITSFCNKLEACGYYAGFYTSLSVANNLVSSHVRDRYALWIAQWNTHCSYQGSYGLWQYSSSGSVNGIAGRVDMDYAYVDYPSVIKNAGLNGYQNGGSYTAPQTSSIDEVAREVINGDWGNGIERKNRLTSAGYDYTSVQNKVNELLGVKAYRKSVDELAREVIRGTWGNGKTRKQRLTQAGYDYNAVQKRVNELL	−0.9 log 10	73	−0.3 log 10	−1.9 log 10
